B1: SETD8 (parent)
chain: GKQAPRKKAQGKTQQNRKLTDFYP

Variants of: B1
Assay: protein stability index of a GFP-peptide fusion (GPS, HEK-293T) (PSI 1-6); higher = more stable
Conditions: c terminus: a fixed tail appended
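Note: lentivirally expressed fusions sorted by FACS into six bins by GFP to DsRed ratio, PSI derived from sequencing read proportions per bin multiplied by bin number.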

Protein stability index: each site, then its substitutions
L19: A 4.54
K7: Y 3.06; T 2.78; M 3.72; W 2.95; F 2.42; E 2.82; Q 3.96; S 2.48; N 2.21; D 3.07
Q14: M 3.64; T 3.4; R 1.85; F 1.92; H 1.57; V 3.07; D 3.06; G 2.52; S 1.89; W 3.37; Y 3.4; I 3.11; C 2.37; E 3.41; A 2.81; P 4.36
P5: Y 2.2; W 2.57
Q15: D 3.71; N 3.07; S 3.26; C 2.15; H 3.76; L 2.76
Q10: D 3.17; R 3.16; M 2.55; W 2.08; S 4.86; A 3.52; V 3.01; E 2.78; P 2.65; F 3.28; I 2.86; Y 3.22
K8: A 3.52; N 2.77; Q 4.11; P 3.76; T 2.77; F 1.63; C 3.48; L 1.99; H 2.99; M 3.47; W 3.3; I 3.04; R 2.75; Y 3.22; S 3.55; G 3.85
R17: H 2.88; L 2.32; G 3.91; F 2.88; N 3.34; E 3.13; T 2.61; C 2.96; I 3.68; D 3.8; P 3.06; K 2.59
T13: I 3.28; R 3.82; A 3.48; D 3.09; Q 3.93; V 3.39; E 3.83; G 3.35; S 2.04; F 2.37; N 2.87; M 2.16
K18: I 4.29; P 2.96; D 4.87; F 3.85; H 2.69; N 4.19; L 2.56; S 3.51; V 3.75; Y 2.76; M 2.06; Q 3.45; T 3.05; A 3.15; C 2.89; E 3.2
A9: Y 3.35; I 3.08; D 3.57; Q 2.89; P 3.43; M 2.54; H 2.6; N 4.09; C 2.77
G11: Y 3.21; E 3.42; D 2.94; A 4.17; M 3.29; H 3.56; S 3.55; L 3.27; I 3.73; T 2.84; P 3.46; R 2.66; N 3.6; K 2.91
R6: D 3.67; F 2.43; G 3.55; P 4.13; N 4.12; K 3.44; I 2.76; E 3.29; H 3.07; C 2.82; Y 2.65; W 2.48; A 3.42; S 3.46; T 3.21; V 2.68
K12: C 2.19; F 4.09; L 3.21; A 2.76; W 3.08; T 3.32; G 3.37; I 2.85; E 3.66; N 3.07; D 2.51; Y 3.42; R 2.99; P 2.51
N16: Y 1.96; T 2.53; F 2.68; A 3.02; M 3.37; K 2.91; S 4.04; V 3.57; E 3.65; I 3.13; P 2.45
